Data published in US7053185B1, “Lactalbumin production process” (HAMLET Pharma AB, priority 1997, dated 2006).

B1: Native, monomeric α-lactalbumin: native human milk α-lactalbumin converted to multimeric form on casein conditioned column, eluting at MAL position (protein, UniProt P00709 20-142, looked up)
Alpha-lactalbumin: KQFTKCELSQLLKDIDGYGGIALPELICTMFHTSGYDTQAIVENNESTEYGLFQISNKLWCKSSQVPQSRNICDISCDKFLDDDITDDIMCAKKILDIKGIDYWLAHKALCTEKLEQWLCEKL
modifications: multimeric form
notes: native human milk α-lactalbumin converted to multimeric form on casein conditioned column, eluting at MAL position
B2: α-lactalbumin treated with EDTA: EDTA treated α-lactalbumin completely converted to oligomeric form on casein conditioned column (protein, UniProt P00709 20-142, looked up)
Alpha-lactalbumin: KQFTKCELSQLLKDIDGYGGIALPELICTMFHTSGYDTQAIVENNESTEYGLFQISNKLWCKSSQVPQSRNICDISCDKFLDDDITDDIMCAKKILDIKGIDYWLAHKALCTEKLEQWLCEKL
modifications: oligomeric form
notes: EDTA treated α-lactalbumin completely converted to oligomeric form on casein conditioned column
B3: monomeric α-lactalbumin in the molten globule-like state: converted on clean matrix conditioned with lipids extracted from casein conditioned column; single peak at MAL position (protein, UniProt P00709 20-142, looked up)
Alpha-lactalbumin: KQFTKCELSQLLKDIDGYGGIALPELICTMFHTSGYDTQAIVENNESTEYGLFQISNKLWCKSSQVPQSRNICDISCDKFLDDDITDDIMCAKKILDIKGIDYWLAHKALCTEKLEQWLCEKL
modifications: molten globule form
notes: converted on clean matrix conditioned with lipids extracted from casein conditioned column; single peak at MAL position
B4: MAL: oligomeric complex of α-lactalbumin in molten globule-like state, from human milk casein by ion exchange, eluting at 1M NaCl (protein, UniProt P00709 20-142, looked up)
Alpha-lactalbumin: KQFTKCELSQLLKDIDGYGGIALPELICTMFHTSGYDTQAIVENNESTEYGLFQISNKLWCKSSQVPQSRNICDISCDKFLDDDITDDIMCAKKILDIKGIDYWLAHKALCTEKLEQWLCEKL
modifications: oligomeric molten globule form
notes: oligomeric complex of α-lactalbumin in molten globule-like state, from human milk casein by ion exchange, eluting at 1M NaCl
B5: Example 1: multimeric product from commercial monomeric human α-lactalbumin on matrix pre-run with human milk casein (protein, UniProt P00709 20-142, looked up)
Alpha-lactalbumin: KQFTKCELSQLLKDIDGYGGIALPELICTMFHTSGYDTQAIVENNESTEYGLFQISNKLWCKSSQVPQSRNICDISCDKFLDDDITDDIMCAKKILDIKGIDYWLAHKALCTEKLEQWLCEKL
modifications: multimeric form
notes: multimeric product from commercial monomeric human α-lactalbumin on matrix pre-run with human milk casein
B6: 2: multimeric product from monomeric bovine α-lactalbumin on matrix pre-run with human milk casein (protein, UniProt P00711 20-142, looked up)
Alpha-lactalbumin: EQLTKCEVFRELKDLKGYGGVSLPEWVCTTFHTSGYDTQAIVQNNDSTEYGLFQINNKIWCKDDQNPHSSNICNISCDKFLDDDLTDDIMCVKKILDKVGINYWLAHKALCSEKLDQWLCEKL
modifications: multimeric form
notes: multimeric product from monomeric bovine α-lactalbumin on matrix pre-run with human milk casein
B7: Human α-lactalbumin+, Untreated, MAL Peak 2: second peak from human milk α-lactalbumin (ammonium sulphate precipitation), untreated, casein trained column (protein, UniProt P00709 20-142, looked up)
Alpha-lactalbumin: KQFTKCELSQLLKDIDGYGGIALPELICTMFHTSGYDTQAIVENNESTEYGLFQISNKLWCKSSQVPQSRNICDISCDKFLDDDITDDIMCAKKILDIKGIDYWLAHKALCTEKLEQWLCEKL
modifications: multimeric form
notes: second peak from human milk α-lactalbumin (ammonium sulphate precipitation), untreated, casein trained column
B8: Human α-lactalbumin+, EDTA pre-treated, MAL Peak 1: first peak from EDTA pre-treated human milk α-lactalbumin, casein trained column (protein, UniProt P00709 20-142, looked up)
Alpha-lactalbumin: KQFTKCELSQLLKDIDGYGGIALPELICTMFHTSGYDTQAIVENNESTEYGLFQISNKLWCKSSQVPQSRNICDISCDKFLDDDITDDIMCAKKILDIKGIDYWLAHKALCTEKLEQWLCEKL
modifications: multimeric form
notes: first peak from EDTA pre-treated human milk α-lactalbumin, casein trained column
B9: Human α-lactalbumin+, EDTA pre-treated, MAL Peak 2: second peak from EDTA pre-treated human milk α-lactalbumin, casein trained column (protein, UniProt P00709 20-142, looked up)
Alpha-lactalbumin: KQFTKCELSQLLKDIDGYGGIALPELICTMFHTSGYDTQAIVENNESTEYGLFQISNKLWCKSSQVPQSRNICDISCDKFLDDDITDDIMCAKKILDIKGIDYWLAHKALCTEKLEQWLCEKL
modifications: multimeric form
notes: second peak from EDTA pre-treated human milk α-lactalbumin, casein trained column
B10: Human α-lactalbumin+, EDTA pre-treatment + EDTA buffer, MAL Peak 1: first peak from EDTA treated human milk α-lactalbumin run with EDTA buffers on casein trained column (protein, UniProt P00709 20-142, looked up)
Alpha-lactalbumin: KQFTKCELSQLLKDIDGYGGIALPELICTMFHTSGYDTQAIVENNESTEYGLFQISNKLWCKSSQVPQSRNICDISCDKFLDDDITDDIMCAKKILDIKGIDYWLAHKALCTEKLEQWLCEKL
modifications: multimeric form
notes: first peak from EDTA treated human milk α-lactalbumin run with EDTA buffers on casein trained column
B11: Human α-lactalbumin+, EDTA pre-treatment + EDTA buffer, MAL Peak 2: second peak from EDTA treated human milk α-lactalbumin run with EDTA buffers on casein trained column (protein, UniProt P00709 20-142, looked up)
Alpha-lactalbumin: KQFTKCELSQLLKDIDGYGGIALPELICTMFHTSGYDTQAIVENNESTEYGLFQISNKLWCKSSQVPQSRNICDISCDKFLDDDITDDIMCAKKILDIKGIDYWLAHKALCTEKLEQWLCEKL
modifications: multimeric form
notes: second peak from EDTA treated human milk α-lactalbumin run with EDTA buffers on casein trained column
B12: Commercial human α-lactalbumin, Untreated, MAL Peak 1: first MAL peak from commercial (Sigma) human α-lactalbumin run on casein trained column (protein, UniProt P00709 20-142, looked up)
Alpha-lactalbumin: KQFTKCELSQLLKDIDGYGGIALPELICTMFHTSGYDTQAIVENNESTEYGLFQISNKLWCKSSQVPQSRNICDISCDKFLDDDITDDIMCAKKILDIKGIDYWLAHKALCTEKLEQWLCEKL
modifications: multimeric form
notes: first MAL peak from commercial (Sigma) human α-lactalbumin run on casein trained column
B13: Commercial human α-lactalbumin, Untreated, MAL Peak 2: second MAL peak from commercial (Sigma) human α-lactalbumin run on casein trained column (protein, UniProt P00709 20-142, looked up)
Alpha-lactalbumin: KQFTKCELSQLLKDIDGYGGIALPELICTMFHTSGYDTQAIVENNESTEYGLFQISNKLWCKSSQVPQSRNICDISCDKFLDDDITDDIMCAKKILDIKGIDYWLAHKALCTEKLEQWLCEKL
modifications: multimeric form
notes: second MAL peak from commercial (Sigma) human α-lactalbumin run on casein trained column
B14: Human α-lactalbumin+, Untreated, MAL Peak 1: first peak from human milk α-lactalbumin (ammonium sulphate precipitation), untreated, casein trained column (protein, UniProt P00709 20-142, looked up)
Alpha-lactalbumin: KQFTKCELSQLLKDIDGYGGIALPELICTMFHTSGYDTQAIVENNESTEYGLFQISNKLWCKSSQVPQSRNICDISCDKFLDDDITDDIMCAKKILDIKGIDYWLAHKALCTEKLEQWLCEKL
modifications: multimeric form
notes: first peak from human milk α-lactalbumin (ammonium sulphate precipitation), untreated, casein trained column

Experiments:
tumour cell lines [1] = experiment: Tumour cell line viability, vital dye (trypan blue); assay type: cell-based; conditions: for activity compared with protein isolated from human milk casein: tumour cell lines
Description: The two peaks which are believed to contain MAL were kept separately and tested individually. Testing was carried out as described hereinafter in Example 4. Representative results are set out in Table 1.
(§1) The biological efficacy of the products obtained in the above Examples 1 and 2 above was tested using tumour cell lines as described in Hakansson et al (1995) supra. Cell lines were incubated with samples of the products at various concentrations in cell culture media at 37° C. for various time points. After incubation, the cells are harvested and the cell viability determined using a vital dye (trypan blue).

tumour cell lines [2] = experiment: Apoptosis: oligonucleosome length DNA fragments by agarose gel electrophoresis; assay type: cell-based; conditions: material eluting at MAL position (1 M NaCl)
Description: as §1
(§2) Oligonucleosome length DNA fragments were detected by agarose gel electrophoresis. Cells (2×10^6) were lysed in 5 mM Tris, 20 mM EDTA, 0.5% Triton X-100 pH 8.0 at 4° C. for 1 hour and centrifuged at 13,000×g for 15 minutes. DNA was ethanol precipitated overnight in −20° C., treated with proteinase K and RNAse, loaded on 1.8% agarose gels and electrophoresed with constant voltage set at 50V overnight. DNA fragments were visualized with ethidium bromide using a 305 nm UV-light source and photographed using Polaroid type 55 positive-negative film.

L1210 cells = experiment: Apoptosis-inducing activity / DNA fragmentation in L1210 cells; assay type: cell-based; conditions: 0.7 mg/ml
Description: as §2
The lipid concentration was defined in “MAL equivalents” as the amount extracted from a defined mass of MAL. […] However, lipids from 0.5 or 1 mg of MAL had no effect on cell viability or DNA fragmentation. […] MAL lipids were not active at concentrations when intact MAL killed the cells.

[3] = system: cancer cells and immature cells; conditions: cancer cells and immature cells versus healthy cells; cited from earlier work

Molecule | Viability of tumour cells (tumour cell lines [1]; Dosage 0.5 mg/ml) | Viability of tumour cells (tumour cell lines [1]; Dosage 1.0 mg/ml) | also measured
Commercial bovine α-lactalbumin, untreated, MAL Peak 1: first MAL peak from commercial (Sigma) bovine α-lactalbumin run on casein trained column | 0% | – | Viability of tumour cells (tumour cell lines [1]; Dosage 0.3 mg/ml): 50%
Commercial bovine α-lactalbumin, untreated, MAL Peak 2: second MAL peak from commercial (Sigma) bovine α-lactalbumin run on casein trained column | 98% | 98% | –
B1 | – | – | apoptosis-inducing / biological activity of converted material (tumour cell lines [2]): no apoptosis-inducing activity
B2 | – | – | apoptosis-inducing / biological activity of converted material (tumour cell lines [2]): significant biological activity
B3 | – | – | apoptosis-inducing / biological activity of converted material (tumour cell lines [2]): apoptosis-inducing activity
B4 | – | – | apoptosis induction (reduction of cell viability, DNA fragments) (L1210 cells): induced apoptosis; apoptotic cell death [3]: induces apoptotic cell death in cancer cells and immature cells, but not in healthy cells
B5 | – | – | activity compared with protein isolated from human milk casein (tumour cell lines [1]): similar
B6 | – | – | activity compared with protein isolated from human milk casein (tumour cell lines [1]): similar
B7 | – | 95% | –
B8 | – | 0% | –
B9 | – | – | Viability of tumour cells (tumour cell lines [1]; Dosage ca. 1.5 mg/ml): 98%
B10 | 0% | 0% | –
B11 | 89% | 0% | –
B12 | 0% | 0% | –
B13 | – | 0% | –
B14 | – | 79% | –
